From publication PMC11101478 (2024)

Legend:
Assay in all cases: BLI
E. coli LamB A384S = E. coli LamB A384S (E. coli, UniProt P02943 26-446, A384S)
[1] = molecular target: Shigella sonnei 3070 LamB (Shigella sonnei 3070, UniProt Q3YUU9 26-446)
E. coli LamB = E. coli LamB (E. coli, UniProt P02943 26-446)

B1: gpJ713 (C-terminal truncation of bacteriophage lambda gpJ, starting from residue 713) (domain or fragment)
chain: APAAPSRIELTPGYFQITATPHLAVYDPTVQFEFWFSEKQIADIRQVETSTRYLGTALYWIAASINIKPGHDYYFYIRSVNTVGKSAFVEAVGRASDDAEGYLDFFKGKITESHLGKELLEKVELTEDNASRLEEFSKEWKDASDKWNAMWAVKIEQTKDGKHYVAGIGLSMEDTEEGKLSQFLVAANRIAFIDPANGNETPMFVAQGNQIFMNDVFLKRLTAPTITSGGNPPAFSLTPDGKLTAKNADISGSVNANSGTLSNVTIAENCTINGTLRAEKIVGDIVKAASAAFPRQRESSVDWPSGTRTVTVTDDHPFDRQIVVLPLTFRGSKRTVSGRTTYSMCYLKVLMNGAVIYDGAANEAVQVFSRIVDMPAGRGNVILTFTLTSTRHSADIPPYTFASDVQVMVIKKQALGISVV
What does the source list for B1?
koff (E. coli LamB A384S): < 1e-07 s⁻¹; koff [1]: < 1e-07 s⁻¹; koff (E. coli LamB): 0.00427 s⁻¹
